Sequences and labels used below:
B1: recombinant HMGA1b (natural protein, UniProt P17096-2 1-96, looked up)
chain: MSESSSKSSQPLASKQEKDGTEKRGRGRPRKQPPKEPSEVPTPKRPRGRPKGSKNKGAAKTRKTTTTPGRKPRGRPKKLEKEEEEGISQESSEEEQ
notes: HMGA1b, isoform of HMGA1 from alternative splicing
B2: E3 (dsDNA)
DNA 1: AGAAAAACTCCATCTAAAAAAAAAAAAAAAAAAAAAAAAAAACA
DNA 2: TGTTTTTTTTTTTTTTTTTTTTTTTTTTTAGATGGAGTTTTTCT
B3: recombinant HMGA1a (natural protein, UniProt P17096-1 1-107, looked up)
chain: MSESSSKSSQPLASKQEKDGTEKRGRGRPRKQPPVSPGTALVGSQKEPSEVPTPKRPRGRPKGSKNKGAAKTRKTTTTPGRKPRGRPKKLEKEEEEGISQESSEEEQ
notes: HMGA1a, isoform of HMGA1 from alternative splicing
B4: HCRII (dsDNA)
DNA 1: GACACATTAATCTATAATCAAATA
DNA 2: TATTTGATTATAGATTAATGTGTC
B5: GST-NPM1 117-186 (domain or fragment, UniProt P06748 117-186, looked up)
chain: VAVEEDAESEDEEEEDVKLLSISGKRSAPGGGSKVPQKKVKLAADEDDDDDDEEDDDEDDDDDDFDDEEA
notes: also called central portion of NPM1 containing the two acidic clusters (A2 and A3)

Data set [1] has as its target T1, GST-NPM1 1-259 (UniProt P06748 1-259).
T1 construct: nucleophosmin (NPM1), residues 1-259; Plasmid provided by P.G. Pelicci
Briefly: pull-down; GST-fused NPM1 forms as bait with recombinant HMGA proteins; bound proteins seen by western blot with anti-HMGA1 and anti-HMGA2 antibodies. To be noted: both partners purified. (In general: A western blot detects proteins with antibodies after separation by electrophoresis.)

Data set [2] concerns the target T2, GST-NPM1 1-295 (full length) (UniProt P06748 1-294).
T2 construct: nucleophosmin (NPM1), printed as full length (1-295); Plasmid provided by P.G. Pelicci; pGEX 4T3 GST-NPM1 1-295 is named as the PCR template; also called full-length GST-NPM1; GST-fused NPM1 full length (1-295); source: for EMSA eluted from Glutathione Sepharose 4B
The data set is described as above. To be noted: both partners purified.

The target in data set [3] is T3, GST-NPM1 1-186 (UniProt P06748 1-186).
T3 construct: Plasmid provided by P.G. Pelicci
The data set is described as above. As to conditions: both partners purified.

In data set [4] the target is T4, HMGA1a (UniProt P17096 1-107). As to the kind of experiment: EMSA; no NPM1; two complexes; EMSA: 4 pmol HMGA preincubated 10 min at 4°C with GST-NPM1/GST in 25 mM Tris/HCl pH 8, 5 mM GSH (8 uL); then 0.1 pmol DNA for 10 min in 180 mM NaCl, 1 mM MgCl2. In general terms: A gel shift assay detects complexes by their altered migration in electrophoresis.
The target in data set [5] is T4, HMGA1a. As to the kind of experiment: EMSA; no NPM1; EMSA: 4 pmol HMGA preincubated 10 min at 4°C with GST-NPM1/GST in 25 mM Tris/HCl pH 8, 5 mM GSH (8 uL); then 0.1 pmol DNA for 10 min in 180 mM NaCl, 1 mM MgCl2.
The target of data set [6] is T5, HMGA2 (UniProt P52926 1-109).
T5 sequence: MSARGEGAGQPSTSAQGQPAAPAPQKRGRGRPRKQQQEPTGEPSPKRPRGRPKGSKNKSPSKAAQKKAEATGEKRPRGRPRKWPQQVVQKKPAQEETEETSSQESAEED
The data set is described as above.

For data set [7], the target named is B3. As to the kind of experiment: pull-down; GST-fused NPM1 forms as bait with recombinant HMGA proteins; bound proteins seen by western blot with anti-HMGA1 and anti-HMGA2 antibodies. To be noted: both partners purified.
Data set [8] addresses B1. Described as above. To be noted: both partners purified.

Data on five molecules can be found in publication PMC4339810 (Scientific Reports, 2015).

T1 sequence (P06748 1-259): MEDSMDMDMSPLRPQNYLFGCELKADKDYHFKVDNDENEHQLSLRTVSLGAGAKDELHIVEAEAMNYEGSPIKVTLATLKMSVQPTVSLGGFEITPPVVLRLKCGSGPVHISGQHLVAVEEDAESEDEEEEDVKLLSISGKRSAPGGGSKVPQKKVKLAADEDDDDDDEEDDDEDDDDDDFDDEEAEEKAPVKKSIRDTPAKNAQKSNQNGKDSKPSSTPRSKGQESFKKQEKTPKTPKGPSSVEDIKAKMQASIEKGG
T2 sequence (P06748 whole entry, the tested form may be a part): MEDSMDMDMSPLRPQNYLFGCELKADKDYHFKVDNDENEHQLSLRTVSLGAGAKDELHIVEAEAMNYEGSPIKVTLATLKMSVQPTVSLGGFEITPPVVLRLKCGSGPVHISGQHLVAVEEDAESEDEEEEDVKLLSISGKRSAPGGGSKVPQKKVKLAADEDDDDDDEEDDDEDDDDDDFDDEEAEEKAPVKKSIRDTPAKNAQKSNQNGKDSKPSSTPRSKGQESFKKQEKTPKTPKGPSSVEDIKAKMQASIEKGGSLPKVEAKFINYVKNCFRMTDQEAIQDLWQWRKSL

As for B1, the binding result in data set [1], in data set [2] and in data set [3] was “binds” each time.
For B2, the binding result in data set [4] is listed as “binds”.
In the case of B3, the binding result in data set [1], in data set [2] and in data set [3] was “binds” in each case.
With B4, the binding result in data set [5] and in data set [6] was “binds” throughout.
In the case of B5, the binding result in data set [7] and in data set [8] was “binds” throughout.
